US20230002478A1 (TWIST BIOSCIENCE, published 2023)
Like-named read-outs stand apart in the source and are kept apart here.

What was measured:
SARS-CoV-2 S1 [1] = biological target: T1, SARS-CoV-2 S1 (SARS-CoV-2, UniProt P0DTC2 16-685); assay: SPR
T1 construct: range 16-685

[2] = biological target: T2, S1 domain of SARS-CoV S protein (SARS-CoV, UniProt P59594 14-667); assay: cross-binding assay on the S1 domain of SARS-CoV S protein
T2 construct: domain: S1

SARS-CoV-2 S1 [3] = biological target: T1, SARS-CoV-2 S1; assay: SPR; remark: listed apart in the source
[4] = biological target: T2, S1 domain of SARS-CoV S protein; assay: SPR

Row | Binder | Kd (SARS-CoV-2 S1 [1]) [nM] | Kd (SARS-CoV-2 S1 [3]) [nM] | binding result [4] | also measured
1 | 2-2 (antibody, V domains shown) VH: EVQLLESGGGLVQPGGSLRLSCAASGFTFSRHAMNWVRQAPGKGLEWVSGISGSGDETYYADSVKGRFTISRDNSKNTLYLQMNSLRAEDTAVYYCARDLPASYYDSSGYYWHNGMDVWGQGTLVTVSS VL: DIQMTQSPSSLSASVGDRVTITCRASQTINTYLNWYQQKPGKAPKLLIYSASTLQSGVPSRFSGSGSGTDFTLTISSLQPEDFATYYCQQSYSTFTFGQGTKVEIK | 21 |  |  | 
2 | 2-5 (antibody, V domains shown) VH: EVQLLESGGGLVQPGGSLRLSCAASGFTFSDFAMAWVRQAPGKGLEWVSAISGSGDITYYADSVKGRFTISRDNSKNTLYLQMNSLRAEDTAVYYCAREADGLHSPWHFDLWGQGTLVTVSS VL: DIQMTQSPSSLSASVGDRVTITCRASQSIHTYLNWYQQKPGKAPKLLIYAASALASGVPSRFSGSGSGTDFTLTISSLQPEDFATYYCQQSYSAPPYTFGQGTKVEIK |  |  |  | binding result [2]: binds
3 | 5-1 (Fc fusion) EVQLVESGGGLVQPGGSLRLSCAASGGTFSSIGMGWFRQAPGKEREFVAAISWDGGATAYADSVKGRFTISADNSKNTAYLQMNSLKPEDTAVYYCAKEDVGKPFDWGQGTLVTVSS | 6.6 |  |  | 
4 | 6-63 (Fc fusion) EVQLVESGGGLVQPGGSLRLSCAASGQTFNMGWFRQAPGKEREFVAAIGSGGSTSYADSVKGRFTISADNSKNTAYLQMNSLKPEDTAVYYCWRLGNDYFDYWGQGTLVTVSS | 46 | 65 | no binding | 
5 | 6-3 (Fc fusion) EVQLVESGGGLVQPGGSLRLSCAASGFTFSPSWMGWFRQAPGKEREFVATINEYGGRNYADSVKGRFTISADNSKNTAYLQMNSLKPEDTAVYYCARVDRDFDYWGQGTLVTVSS | 32 | 11 | no binding | 
6 | 6-42 (Fc fusion) EVQLVESGGGLVQPGGSLRLSCAASGDTYGSYWMGWFRQAPGKEREFVAVITSGGSTNYADSVKGRFTISADNSKNTAYLQMNSLKPEDTAVYYCTHVQNSYYYAMDVWGQGTLVTVSS |  |  |  | binding result (SARS-CoV-2 S1 [1]): binds
